Measurements as given in the RNAGym collection of RNA variant scans (doi:10.1073/pnas.2313332121).

B1: TPR t1 (parent)
chain: GACCAAUCUGCCCUCAGAGCUCGAGAACAUCUUCGGAUGCAGAGGAGGCAGGCUUCGGUGGCGCGAUAGCGCCAACGUCCUCAACCUCCAAUGCAUCCCACCACAUGAUGAUGCCUGAAGAGCCUUGGUUUUUUG

Variants of: B1
Assay: polymerase ribozyme fitness, log enrichment relative to wild type (log ratio); higher = more active; in vitro selection for triplet polymerase activity
Method in brief: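 Libraries of mutants in each subunit of a heterodimeric triplet polymerase ribozyme were generated by PCR and transcribed. In triplicate, each went through one in vitro selection round: annealing with biotinylated primer, partner subunit and triplets; frozen incubation at −7 °C; gel excision of extended constructs; streptavidin-bead capture; RT-PCR. Fitness, taken from Illumina sequencing of input and output libraries, is the logarithm of a genotype's enrichment over wild-type enrichment, averaged across replicates with inverse-variance weights. The logarithm is base 2, and genotypes needed ≥10 input reads and ≥1 read per output to be kept.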

Row | Variant | polymerase ribozyme fitness (log ratio)
1 | GACCAAUCUGCCCUCAGAGCUCGAGAACAUCUUCGGAUGCAGAGCAGGCAGGCUUCGGUGGCGCGAUAGCGCCAACUUCCUCAACCUCCAAUGCAUCCCACCACAUGAUGAUGCCUGAAGAGCCUUGGUUUUUUG [G45C G77U] | -1.32
2 | GACCAAUCUGCCCUCAGAGCUCGAGAACAUCUUCGGAUGCAGAGCAAGCAGGCUUCGGUGGCGCGAUAGCGCCAACGUGCUCAACCUCCAAUGCAUCCCACCACAUGAUGAUGCCUGAAGAGCCUUGGUUUUUUG [G45C G47A C79G] | -5.96
3 | GACCAAUCUGCCCUCAGAGCUCGAGAACAUCUUCGGAUGCAGAGUAGGCUGGCUUCGGUGGCGCGAUAGCGCCAACGUCCUCAACCUCCAAUGCAUCCCACCACAUGAUGAUGCCUGAAGAGCCUUGGUUUUUUG [G45U A50U] | -2.62
4 | GACCAAUCUGCCCUCAGAGCUCGAGAACAUCUUCGGAUGCAGAGCAGGCAGGCUUCGGUGGCGCGAUAGCGCCAACGCCCUCAACCUCCAAUGCAUCCCACCACAUGAUGAUGCCUGAAGAGCAUUGGUUUUUUG [G45C U78C C124A] | 0.349
5 | GACCAAUCUGCCCUCAGAGCUCGAGAACAUCUUCGGAUGCAGAGCAGGCAGGCUUCGGUGGCGCGAUAGCGCCAACGUCCUCAACCUCCAAUGCAUCCCACAACAUGAUGAUGCCUGAAGAGCCUUGGUUUUUUG [G45C C102A] | -3.26
6 | GACCAAUCUGCCCUCAGAGCUCGAGAACAUCUUCGGAUGCAGAGCAGGCAGGCUUCGGUGGCGCGAUAGCGCCAACGUCCUCAACCUCCAAUGCAUCCCACCACAAGAUGAUGCCUGAAGAGCCUUGGUUUUUUG [G45C U106A] | -1.34
7 | GACCAAUCUGCCCUCAGAGCUCGAGAACAUCUUCGGAUGCAGAGUCGGCAGGCCUCGGUGGCGCGAUAGCGCCAACGCCCUCAACCUCCAAUGCAUCCCACCACAUGAUGAUGCCUGAAGAGCCUUGGUUUUUUG [G45U A46C U54C U78C] | -2
8 | GACCAAUCUGCCCUCAGAGCUCGAGAACAUCUUCGGAUGCAGAGCAGGCAGGCUUCGGUGGCGCGAUAGCGCCAACGUCCUCAACCUCCAAUGCAUCCCACCACAUGAUGAUCCCUGAAGAGCCUUGGUUUUUUU [G45C G113C G135U] | -4.16
9 | GACCAAUCUGCCCUCAGAGCUCGAGAACAUCUUCGGAUGCAGAGCAGGCAGGCUUCGGUGGCGCGAUAGCGCCAACGUCCUCAACCUCCAAUGCAACCCACCACAUGAUGAUGCCUGAAGAGCCUUGGUUUUUUG [G45C U96A] | -1.79
10 | GACCAAUCUGCCCUCAGAGCUCGAGAACAUCUUCGGAUGCAGAGCAGGCAGGCUUCGGUCGCGCGAUAGCGCCAACGUCCUCAGCCUCCAAUGCAUCCCACCACAUGAUGAUGCCUGAAGAGCCUUGGUUUUUUG [G45C G60C A84G] | -2.3
11 | GACCAAUCUGCCCUCAGAGCUCGAGAACAUCUUCGGAUGCAGAGCAGGCAGGCUUCGGUGGCGCGAUAACGCCAACGUCCUCAACCUCCAAUGCAUCCCACCACAUGAUGAUGCCUGAAGAGCCUUGGUUUUUUG [G45C G69A] | -3.75
12 | GACCAAUCUGCCCUCAGAGCUCGAGAACAUCUUCGGAUGCAGAGCAGGCAGGCUUCGGUGACGCGAUAGCGCCAACGUCCUCAACCUCCAAUGCAUCCCACCACAUGAUGAUGCCUGAAGAGCCUUGGUUUUUUG [G45C G61A] | 0.0573
13 | GACCAAUCUGCCCUCAGAGCUCGAGAACAUCUUCGGAUGCAGAGUAGGCCGGCUUAGGUGGCGCGAUAGCGCCAACGUCCUCAACCUCCAAUGCAUCCCACCACAUGAUGAUGCCUGAAGAGCCUUGGUUUUUUG [G45U A50C C56A] | -1.55
14 | GACCAAUCUGCCCUCAGAGCUCGAGAACAUCUUCGGAUGCAGAGCAGGCAGGCUUCGGUGGCGCGAUAGCGCCAACGUCCUCAACCUCCAAUGCAUCCCACCACAUGAUGAUGCCUGAAGAGCCUUGGUUUAUUG [G45C U132A] | -1.99
15 | GACCAAUCUGCCCUCAGAGCUCGAGAACAUCUUCGGAUGCAGAGCAGGCAGGCUUCGGUGGCGCGAUAGCGCCAACGUCCUCAACCUCCAAUGCAUCCCAGCACAUGAUGAUGCCUGAAGAACCUUGGUUUUUUG [G45C C101G G122A] | -3.08
16 | GACCAAUCUGCCCUCAGAGCUCGAGAACAUCUUCGGAUGCAGAGCAGGCAGGCUUCGGUGGCACGAUAGCGCCAACGUCCUCAACCUCCAAUGCAUCCCACCACAAGAUGAUGCCUGAAGAGCCUUGGUUUUUUG [G45C G63A U106A] | -1.21
17 | GACCAAUCUGCCCUCAGAGCUCGAGAACAUCUUCGGAUGCAGAGCAGGCAGGCUUCGGUGGCGCGAUAGCGCCAACGUCCUCAACCUCCAAUGCAUCCCACCACAUGAUGAUCCCUGAAGAGCCUUGGUUUUUUG [G45C G113C] | -2.91
18 | GACCAAUCUGCCCUCAGAGCUCGAGAACAUCUUCGGAUGCAGAGUUGGCAGGCUUCGGUGGCGCGAUAGCGCCAACGUCCUCAACCUCCAAUGCAUCCCACCACAUGAUGAUGCCUGAAGAGCCUUGGUUUUUUG [G45U A46U] | -2.3
19 | GACCAAUCUGCCCUCAGAGCUCGAGAACAUCUUCGGAUGCAGAGUCGGCAGGCUUCGGUGGCGCGAUAGCGCCAACGUCCUCAACCUCCAAUGCAUCCCACCACAUGAUGAUGCCUGAAGAGCCUUGGUUUUUUG [G45U A46C] | -2.05
20 | GACCAAUCUGCCCUCAGAGCUCGAGAACAUCUUCGGAUGCAGAGUAGGCAGGCUUCGGUGGCGCGAUAGCGCCAACGUCCUCAACCUCCAAUGCAUCCCACCACAUGAUGAUGCCUGAAGAGCCUUGGUUUUUUG [G45U] | -1.31
21 | GACCAAUCUGCCCUCAGAGCUCGAGAACAUCUUCGGAUGCAGAGCAGGCAGGCUUCGGUGGCGCGAUAGCGCCAACGUCCUCAACCUCCAAUGCAUACCACCACAUGAUGAUGCCUGAAGAGCCUUGGUUUUUUG [G45C C97A] | -4.5
